According to the supplement of paper PMC11780869:

System: Bacillus subtilis
Assay: cleaved RNA product abundance (RNA/gDNA barcode ratio) relative to median wild-type variant (ratio to wild type); higher = more accumulation of the downstream cleavage product
How it was run: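 Reporter mRNAs based on truncated aprE or tetM carried barcoded, mutagenized RNase Y cleavage-site windows built from oligos with a 9% error rate and were integrated into the B. subtilis chromosome. Cultures grew in LB at 37°C from OD600 0.0003 to 0.3. Cleaved RNA was gel-selected, reverse transcribed and barcode-sequenced together with genomic DNA barcodes, and UMIs were collapsed. Cleaved product abundance is the per-construct ratio of RNA to gDNA barcodes, scaled to the median of constructs carrying the unmutated site.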

[1] = experiment (reporter, strain, medium): exp 8a: truncated aprE reporter, strain BJT201 with 2% xylose (RNase J1 expressed), cleavage site: glnRA (positions -5 to +31 mutated)
[2] = experiment (reporter, strain, medium): exp 4a: truncated aprE reporter, strain BJT201 with 2% xylose (RNase J1 expressed), cleavage site: cggR-gapA (positions -7 to +36 mutated)
[3] = experiment (reporter, strain, medium): exp 2b: truncated aprE reporter, strain BJT200, cleavage site: cggR-gapA (positions -7 to +36 mutated)

Sequence	cleaved RNA product abundance [1]	cleaved RNA product abundance [2]	cleaved RNA product abundance [3]
CGACATGTCCCGCTTCTTTCATTAATCCGTTACCAACTGTTATGCTATATACATTTACCTTTTAAGAGGAGGAAT	0.307	–	–
CGACATGTCCCGCTTCTTTCATTAATCTGTTAGCAACTGTTTTGCTTTATACATTTACCTTTTAAGAGGAGGAAT	0.247	–	–
ACAGACGAAGGAGCCGCAAAGAAGTTATTTAGGGATGAATAATCCCTCAATATAAAAATCTCTCACTTATTTAAA	–	0.601	–
ACAGACGAAGGAGCCGCAAAGAAGTTATTAGGGGATGACTAATCCCTCAATATAAATATCTCTCACTTATTTAAA	–	0.63	–
ACAGACGAAGGAGCCGCAAAGAAGTTATTAAGGGTTGAATAATCCCTGAATATAAATATCTCTCACTTATTTAAA	–	0.299	–
ACAGACGAAGGAGCCGCAAAGAAGATATTAAGGGATGAATAATCCCTCAACATAAATATCTCTCACTTATTTAAA	–	0.157	0.131
CGACATGTCCCGCTTCTTTCATTAACCCGTTACTCACTGTTTTGGAATATACATTTACCTTTTAAGAGGAGGAAT	0.147	–	–
ACAGACGAAGGAGCCGCAAAGACGTTATTAAAGGATGAATAATCCCTCAATATAAATATCTCTCACTTATTTAAA	–	0.181	–
ACAGACGAAGGAGCCGCAAAGAAGTTATTACGGGAAGAATAATCCCTCAATATAAATATCTCTCACTTATTTAAA	–	0.322	0.152
ACAGACGAAGGAGCCGCAAAGAATTTATTATGGGATGAATAATCCCTCAATATAAATATCTCTCACTTATTTAAA	–	0.292	0.266
CGACATGTCCCGCTTCTTTCATTAATCCGTTAGCAACTGTTTTGCTATATTCATATACCTTTTAAGAGGAGGAAT	0.449	–	–
ACAGACGAAGGAGCCGCAAAGAAGTTATAAAGGGATGAATAATCCCTCAATATAAATATTTCTCACTTATTTAAA	–	0.51	–
CGACATGTCCCGCTTCTTTCATTAAGCCGTAAGCAACTGTTTTGCTATATACATTTACCTTTTAAGAGGAGGAAT	0.519	–	–
ACAGACGAAGGAGCCGCAAAGAATTTATCAAGGGATGAATAATCCCTCAATATAAATATCTCTCACTTATTTAAA	–	0.377	0.275
ACAGACGAAGGAGCCGCAAAGAAATTATTAAGGGATCAATAATCCCTCAATATAAATATCTCTCACTTATTTAAA	–	–	0.646
ACAGACGAAGGAGCCGCAAAGAAGTTATTAAGGACTGAATAATCCCTCAATATAAATATCTCTCACTTATTTAAA	–	0.0888	0.0791
ACAGACGAAGGAGCCGCAAAGAAGTGATTAAGGGATGAATAACCCCTCAATATAAATATCTCTCACTTATTTAAA	–	0.163	–
ACAGACGAAGGAGCCGCAAAGAAGTTATTAAGGGATGAATAATGCCTCAAAATAAATATCTCTCACTTATTTAAA	–	0.173	–
ACAGACGAAGGAGCCGCAATGAAGTTATTAAGGGATGAATAATCCCTCTATATAAATATCTCTCACTTATTTAAA	–	0.689	–
CGACATGTCCCGCTTCTTTCATTAATCCATTAGCAACTGTTTTGCTATATACTTTTACCTTTTAAGAGGAGGAAT	0.253	–	–
ACAGACGAAGGAGCCGCAAAGAAGTTATTAAGGGATGAATTATCCCTCAATATATATATCTCTCACTTATTTAAA	–	0.616	–

Sequence	cleaved RNA product abundance [1]	cleaved RNA product abundance [2]	cleaved RNA product abundance [3]
ACAGACGAAGGAGCCGCAAAGAAGTTATCAAGGGATGAATAATCGCTCAATATAAATATCTCTCACTTATTTAAA	–	0.0908	–
CGACATGTCCCGCTTCTTTCATTAATCCGTTAGCAACTGTTTTGCTATATAAATTTACCTTTTAAGAGGAGGAAT	0.938	–	–
ACAGACGAAGGAGCCGCAAAGAAGTTATTAAGGGATGAGTAATCCCTCCATATAAATATCTCTCACTTATTTAAA	–	0.164	–
ACAGACGAAGGAGCCGCAAACAAGTTATTAAGGGATGAACAATCCCTCAATATAAATATCTCTCACTTATTTAAA	–	0.451	–
ACAGACGAAGGAGCCGCAAAGAAGTAATTAAGGGATGAATACTCCCTCAATATAAATATCTCTCACTTATTTAAA	–	0.324	–
ACAGACGAAGGAGCCGCAAAGAAGTTATTAAAGGATGAATAATTCCTCAATATAAATATCTCTCACTTATTTAAA	–	0.172	0.0999
ACAGACGAAGGAGCCGCAAAGAAGTTATTAAGGGATGAATAATCCCTCAAAATAAACATCTCTCACTTATTTAAA	–	0.316	–
CGACATGTCCCGCTTCTTTCATTAATCCGTTAGCAACTGTTTTGCTATATACATTTACCCTTTAAGAGGAGGAAT	0.763	–	–
ACAGACGAAGGAGCCGCAAAGAAGTTTTTAAGGGATAAATAATCCCTCAATATAAATATCTCTCACTTATTTAAA	–	0.214	–
ACAGACGAAGGAGCCGCAAAGAAGTTATTAAGGGATGAATAATCCTTCAAAATAAATATCTCTCACTTATTTAAA	–	0.253	0.259
ACAGACGAAGGAGCCGCAAAGAAGTTATTAAGGGATGAATAATCCCTCAATAAAAATGTCTCTCACTTATTTAAA	–	0.0307	–
CGACATGTCCCGCTTCTTTCATTAATCCGATAGCAACTTTTTTGCTATATACATTTACCTTTTAAGAGGAGGAAT	1.24	–	–
CGACATGTCCCGCTTCTTTCATTAATCCGTTAGTAACTGTCTTGCTATATACATTTACCTTTTAAGAGGAGGAAT	0.231	–	–
CGACATGTCCCGCTTCTTTCATTAATCCGTTAGCAACTGTTTATCTATATACATTTACCTTTTAAGAGGAGGAAT	0.501	–	–
ACAGACGAAGGAGCCGCAAAGAAGTTATTAAGGGCTGAATAACCCCTCAATATAAATATCTCTCACTTATTTAAA	–	0.424	–
ACAGACGAAGGAGCCGCAAAGAAGATATTAATGGATGAATAATCCCTCAATATAAATATCTCTCACTTATTTAAA	–	0.173	0.132
CGACATGTCCCGCTTCTTTCATTAATCCGTTAGCAATTGTGTTGCTATATACATTTACCTTTTAAGAGGAGGAAT	0.947	–	–
CGACATGTCCCGCTTCTTTCATTAATCCGTTAGCAACTGTTTTGCTATATACATTTATTTTTTAAGAGGAGGAAT	2.39	–	–
CGACATGTCCCGCTTCTTTCATTAATCCGTTAGTTACTGTTTTGCTATATACATTTACCTTTTAAGAGGAGGAAT	0.365	–	–
ACAGACGAAGGAGCCGCAAAGAAGTTATGAAGGAATGAATAATCCCTCAATATAAATATCTCTCACTTATTTAAA	–	0.0818	0.139
ACAGACGAAGGAGCCGCAAAGGAGTTATTAAGGGATGACTAATCCCTCAATATAAATATCTCTCACTTATTTAAA	–	0.596	0.423

Sequence	cleaved RNA product abundance [1]	cleaved RNA product abundance [2]	cleaved RNA product abundance [3]
CGACATGTCCCGCTTCTTTCATTAATCCGTTAGCAACTGTTTTGTTATATACATTTAACTTTTAAGAGGAGGAAT	0.617	–	–
CGACATGTCCCGCTTCTTTCATTAATACGTTAGCAACTGTTTTGATATATACATTTACCTTTTAAGAGGAGGAAT	0.527	–	–
ACAGACGAAGGAGCCGCAAAGAAGTTATTAAGGGATGAAAAATCCCTCTATATAAATATCTCTCACTTATTTAAA	–	0.535	–
ACAGACGAAGGAGCCGCAAAGAAGTTATAAAGGGATGAATAATCCCTAAATATAAATATCTCTCACTTATTTAAA	–	0.626	–
CGACATGTCCCGCTTCTTTCATTAATCCCTTAGCAACTGTTTTGCTATATACATTTACTTTTTAAGAGGAGGAAT	0.19	–	–
ACAGACGAAGGAGCCGCAAAGAAGTTATTAACGGATGAATAATCCCTCAATATAAATCTCTCTCACTTATTTAAA	–	–	0.108
ACAGACGAAGGAGCCGCATAGAAGTTATTAAGGGAAGAATAATCCCTCAATATAAATATCTCTCACTTATTTAAA	–	0.6	–
ACAGACGAAGGAGCCGCAAAGAAGTTATTAAAGGGATGAATAATCCCTCAATATAAATATCTCTCACTTATTTAA	–	0.35	0.283
ACAGACGAAGGAGCCGCAAAGAAGTTATTAAGGTATGAATAATCCATCAATATAAATATCTCTCACTTATTTAAA	–	0.145	0.125
CGACATGTCCCGCTTCTTTCATTAATCCGTTATCAACTGATTTGCTATATACATTTACCTTTTAAGAGGAGGAAT	0.286	–	–
ACAGACGAAGGAGCCGCAAAGAAGTTATTAAGGGATGATTTATCCCTCAATATAAATATCTCTCACTTATTTAAA	–	0.771	–
ACAGACGAAGGAGCCGCAACGAATTTATTAAGGGATGAATAATCCCTCAATATAAATATCTCTCACTTATTTAAA	–	1.15	0.738
ACAGACGAAGGAGCCGCAAAGAAGTTATTAAGGGAAGAATAATCCCTAAATATAAAAATCTCTCACTTATTTAAA	–	0.415	–
ACAGACGAAGGAGCCGCGAAGAAGTTATTAACGGATGAATAATCCCTCAATATAAATATCTCTCACTTATTTAAA	–	0.185	0.164
ACAGACGAAGGAGCCGCAAAGAAGTTATTAAGCGATGAATAAGCCCTCAATATAAATATCTCTCACTTATTTAAA	–	0.108	–
ACAGACGAAGGAGCCGCAATGAAGTTATTAAGGGAAGAATAATCCCTCAATATAAATATCTCTCACTTATTTAAA	–	0.702	0.389
ACAGACGAAGGAGCCGCAAAAAAGTTATTAAGGGATGAATAATCCATCAATATAAATATCTCTCACTTATTTAAA	–	0.307	0.17
CGACATGTCCCGCTTCTTTCATTATTCCGTTAGCAACTGTTTTGCTATATACATTTACCATTTAAGAGGAGGAAT	1.89	–	–
ACAGACGAAGGAGCCGCAAAGAAGTTATTAAGGGATGAGTAATCCCTCATTATAAATATCTCTCACTTATTTAAA	–	0.185	–
